Test results from US20240417463A1 (ADAGENE PTE, published 2024).

What was measured:
[1] = target: human CD47 on the cell surface (CEM, Raji and other human tumor cells, human RBCs) (human) (UniProt Q08722); test: flow cytometry, human RBCs, batch 2
[2] = target: human CD47 on the cell surface (CEM, Raji and other human tumor cells, human RBCs) (human) (UniProt Q08722)
[3] = target: T1, human CD47 on the cell surface (CEM, Raji and other human tumor cells, human RBCs) (human, UniProt Q08722 19-323); test: flow cytometry, Raji cells, batch 3; Raji tumor cells, batch 3
T1 construct: whole, on cells; also called CD47 on tumor cell surface; CD47 on RBCs

[4] = target: T1, human CD47 on the cell surface (CEM, …); test: cell-based or functional assay
[5] = target: T2, hCD47-ECD/Fc protein (Sinobiological) (human, UniProt Q08722 19-139, biotinylated in the Octet assay, sites not stated); test: BLI (Octet RED96), biotin-hCD47-ECD/Fc on SA sensors, 1:1 model;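 note: test antibodies as analytes, 300 s association then 300 s dissociation in running buffer, with benchmark reference antibodies run as controls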
T2 construct: extracellular domain; Bought protein; also called human CD47-Fc antigen; recombinant hCD47-ECD/Fc; not shown: Fc part of the bought fusion protein

[6] = target: T1, human CD47 on the cell surface (CEM, …); test: flow cytometry, CEM cells, batch 2; CEM tumor cells, batch 2
[7] = target: T2, hCD47-ECD/Fc protein (Sinobiological); test: ELISA, coated hCD47-ECD/Fc
[8] = target: T2, hCD47-ECD/Fc protein (Sinobiological); test: ELISA, coated hCD47-ECD/Fc, second independent measurement
[9] = target: T2, hCD47-ECD/Fc protein (Sinobiological); test: competition ELISA vs biotin-hSIRPα-ECD/His on coated hCD47-ECD/Fc, experiment 1
[10] = target: T2, hCD47-ECD/Fc protein (Sinobiological); test: BLI (Octet RED96), biotin-hCD47-ECD/Fc on SA sensors, 1:1 model, second independent measurement
[11] = target: T2, hCD47-ECD/Fc protein (Sinobiological); test: competition ELISA vs biotin-hSIRPα-ECD/His on coated hCD47-ECD/Fc, experiment 2
[12] = target: T2, hCD47-ECD/Fc protein (Sinobiological); test: BLI (Octet RED96), biotin-hCD47-ECD/Fc on SA sensors, 1:1 model; ForteBio BLI affinity ranking, not ELISA

Row | Molecule | Kd [5] [pM] | koff [5] [s⁻¹] | kon [5] [M⁻¹ s⁻¹] | EC50 [7] [pM] | IC50 [9] [pM] | further results
1 | Isotype control (RBC binding, Table 15) (antibody) |  |  |  |  |  | max MFI [1]: 105 MFI
2 | Neg ctrl (antibody) |  |  |  |  |  | % of events double-positive for CFSE-Raji and BMQC-Jurkat (cell clustering), antibody at 100 nM [2]: 10.3%
3 | TAC2407 (antibody, V domains shown, Benchmark anti-CD47 antibody; also called 13H3; TJC4) VH: EVQLVESGGGLVKPGGSLRLSCAASGLTFERAWMNWVRQAPGKGLEWVGRIKRKTDGETTDYAAPVKGRFSISRDDSKNTLYLQMNSLKTEDTAVYYCAGSNRAFDIWGQGTMVTVSS VL: DIVMTQSPDSLAVSLGERATINCKSSQSVLYAGNNRNYLAWYQQKPGQPPKLLINQASTRASGVPDRFSGSGSGTEFTLIISSLQAEDVAIYYCQQYYTPPLAFGGGTKLEIK | 1400 | 0.000729 | 520000 |  |  | EC50 [3]: 1970 pM; EC50 of macrophage phagocytosis of CEM cells, donor A [4]: 4400 pM; EC50 of macrophage phagocytosis of CEM cells, donor B [4]: 830 pM; Max. Phagocytosis (%), donor A [4]: 29.7%; Max. Phagocytosis (%), donor B [4]: 29%; EC50 [6]: 1180 pM
4 | TY25034 (antibody, V domains shown) VH: EVQLVESGGGLVQPGGSLRLSCAASGYSITSGHYWNWIRQAPGKGLEWIGIISPSGGGTKYAQKFQGRVTISRDNSKNTLYLQLNSLRAEDTAVYYCARGARGYYALDYWGQGTLVTVSS VL: EIVLTQSPATLSLSPGERATLSCRASQSVRGRLLAWYQQKPGQAPRLLIYAASSLQSGVPARFSGSGSGTDFTLTISSLEPEDFAVYYCAQYLELPYTFGQGTKVEIKR | 826 | 0.000671 | 813000 | 470 | 3530 | Kd [10]: 870 pM; koff [10]: 0.000704 s⁻¹; kon [10]: 809000 M⁻¹ s⁻¹; EC50 [8]: 410 pM
5 | TY21451 (antibody, V domains shown) VH: EVQLVESGGGLVQPGGSLRLSCAASGFTFSDYWIHWVRQAPGKGLEWVSGISGAGGSTYYADSVKGRFTISRDNSKNTLYLQLNSLRAEDTAVYYCARLGDYWGQGTLVTVSS VL: DIQLTQSPSSLSASVGDRVTITCRASQGISSVLAWYQQKPGKAPKLLIYAASTLQSGVPSRFSGSGSGTDFTLTISSLQPEDFATYYCQQYYSIPFTFGQGTKVEIKR |  |  |  |  |  | IC50 [11]: > 100000 pM
6 | TY25032 (antibody, V domains shown) VH: EVQLVESGGGLVQPGGSLRLSCAASGFTFTSYGIHWVRQAPGKGLEWVSAISGSGGSTYYADSVKGRFTISRDNSKNTLYLQLNSLRAEDTAVYYCARSGHAYDFDYWGQGTLVTVSS VL: DIQLTQSPSSLSASVGDRVTITCRASQSVDFYGISFLDWYQQKPGKAPKLLIYAASTLQSGVPSRFSGSGSGTDFTLTISSLQPEDFATYYCQQGGTSPWTFAQGTKVEIKR |  |  |  |  |  | Kd [12]: 2730 pM; koff [12]: 0.000806 s⁻¹; kon [12]: 295000 M⁻¹ s⁻¹
7 | TY25038 (antibody, V domains shown) VH: QVQLVQSGAEVKKPGSSVKVSCKASGFTFSRYAIHWVRQAPGQGLEWLGGIIPVFGTANYAQKFQGRVTITADKSTSTAYMELSSLRSEDTAVYYCARQGILGGFAYWGQGTLVTVSS VL: DIQLTQSPSSLSASVGDRVTITCRASESVDFHGKSFLAWYQQKPGKAPKLLIYAASSLQSGVPSRFSGSGSGTDFTLTISSLQPEDFATYYCQQYLELPFTFGQGTKVEIKR | 4470 | 0.00111 | 249000 | 780 | > 100000 | 
8 | TY25031 (antibody, V domains shown) VH: EVQLVESGGGLVQPGGSLRLSCAASGYSITSGYHWGWIRQAPGKGLEWIGRIYPSSGSTKYAQKFQGRVTISRDNSKNTLYLQLNSLRAEDTAVYYCARGVRGSYGWFDVWGQGTLVTVSS VL: DIQLTQSPSSLSASVGDRVTITCSASSRVSYVYWYQQKPGKAPKLLIYAASTLQSGVPSRFSGSGSGTDFTLTISSLQPEDFATYYCQHYVSSPRVYTFGQGTKVEIKR | 483 | 8.1e-05 | 168000 | 590 | 4550 | EC50 [8]: 600 pM
9 | TY21447 (antibody, V domains shown) VH: EVQLVESGGGLVQPGGSLRLSCAASGFTFSNYAIHWVRQAPGKGLEWVSAISGSGSSTYYADSVKGRFTISRDNSKNTLYLQLNSLRAEDTAVYYCARRGSYGFGAFDYWGQGTLVTVSS VL: DIQLTQSPSSLSASVGDRVTITCRASQTIGRYLNWYQQKPGKAPKLLIYDASNRATGIPSRFSGSGSGTDFTLTISSLQPEDFATYYCQQRYPWPYTFGQGTKVEIKR |  |  |  | 330 |  | IC50 [11]: 3120 pM
10 | TY21449 (antibody, V domains shown) VH: EVQLVESGGGLVQPGGSLRLSCAASGFTFSGYAIHWVRQAPGKGLEWVSAISGSGSSTYYADSVKGRFTISRDNSKNTLYLQLNSLRAEDTAVYYCARRGSYGFGAFDYWGQGTLVTVSS VL: DIQLTQSPSSLSASVGDRVTITCRASQTIGRYLNWYQQKPGKAPKLLIYDASNRATGIPSRFSGSGSGTDFTLTISSLQPEDFATYYCQQRYPWPYTFGQGTKVEIKR |  |  |  |  |  | IC50 [11]: 3180 pM

Continued, in another order:

Row | Kd [5] [pM] | koff [5] [s⁻¹] | kon [5] [M⁻¹ s⁻¹] | EC50 [7] [pM] | IC50 [9] [pM] | Molecule | further results
11 | 474 | 0.0002 | 422000 | 460 | 3300 | TY25040 (antibody, V domains shown) VH: QVQLVQSGAEVKKPGSSVKVSCKASGFTFSDYGIHWVRQAPGQGLEWIGRIYPSGGSTNYAQKFQGRVTITADKSTSTAYMELSSLRSEDTAVYYCARQRGYGRFAYWGQGTLVTVSS VL: DIQLTQSPSSLSASVGDRVTITCSASSSVGYVYWYQQKPGKAPKLLIYDASSLESGVPSRFSGSGSGTDFTLTISSLQPEDFATYFCQQYTYAPFTFGQGTKVEIKR | EC50 [8]: 390 pM
12 | 611 | 3.42e-05 | 56000 | 950 | > 100000 | TY25037 (antibody, V domains shown) VH: QVQLVQSGAEVKKPGSSVKVSCKASGYSITSGHYWTWIRQAPGQGLEWIGGIIPVFGTPNYAQKFQGRVTITADKSTSTAYMELSSLRSEDTAVYYCASYGYGGAYFDVWGQGTLVTVSS VL: DIQLTQSPSSLSASVGDRVTITCRASQSVDFHGISFLHWYQQKPGKAPKLLIYDASNRATGIPSRFSGSGSGTDFTLTISSLQPEDFATYYCVQGIQWPWTFGQGTKVEIKR | 
